{
  "source": "patent US20130260436A1",
  "about": "“Methods of Identifying and Characterizing Natural Product Gene Clusters” (Victoria LInk Limited, priority 2010, published 2013)",
  "molecules": {"B1": {"name": "BpsA: single module NRPS protein of S. lavendulae ATCC11924 that converts L-glutamine into indigoidine; SEQ ID NO: 3 (protein, listed as Streptomyces lavendulae)", "chain": "MTLQETSVLEPTLQGTTTLPGLLAQRVAEHPEAIAVAYRDDKLTFRELASRSAALADYLEHLGVSADDCVGLFVEPSIDLMVGAWGILNAGAAYLPLSPEYPEDRLRYMIENSETKIILAQQRLVSRLRELAPKDVTIVTLRESEAFVRPEGTEAPAARSARPDTLAYVIYTSGSTGKPKGVMIEHRSIVNQLGWLRETYAIDRSKVILQKTPMSFDAAQWEILSPANGATVVMGAPGVYADPEGLIETIVKHNVTTLQCVPTLLQGLIDTEKFPECVSLQQIFSGGEALSRLLAIQTTQEMPGRALINVYGPTETTINSSSFPVDPADLDEGPQSISIGSPVHGTTYHILDKETLKPVGVGEIGELYIGGIQLARGYLHRDDLTAERFLEIELEEGAEPVRLYKTGDLGQWNNDGTVQFAGRADNQVKLRGYRVELDEISLAIENHDWVRNAAVIVKNDGRTGFQNLIACIELSEKEAALMDQGNHGSHHASKKSKLQVKAQLSNPGLRDDAELAARPAFDLEGAEPTPEQRARVFARKTYRFYEGGAVTQADLLGLLGATVTAGYSRKAADLAPAELGQILRWFGQYISEERLLPKYGYASPGALYATQMYFELEGVGGLKPGYYYYQPVRHQLVLISEREATGKATAQIHFIGKKSGIEPVYKNNILEVLEIETGHMVGLFEQILPAYGLDIHDRAYEPAVKDLLDVADEDYYLGTFELVPHAGARDDQAEVYVQTHGGKVAGLPEGQYRYENGELTRFSDDIVLKKHVIAINQSVYQAASFGISVYSRAEEEWLKYITLGKKLQHLMMNGLNLGFMSSGYSSKTGNPLPASRRMDAVLGANGVDSAPMYFFVGGRISDEQIGHEGMREDSVHMRGPAELIRDDLVSFLPDYMIPNRVVVFDRLPLSANGKIDVKALAASDQVNAELVERPFVAPRTETEKEIAAVWEKALRRENASVQDDFFESGGNSLIAVGLVRELNARLGVSLPLQSVLESPTIEKLARRLEREVAQESSRFVRLHAETGKARPVICWPGLGGYPMNLRSLAGEIGLGRSFYGVQSYGINEGETPYETITEMAKKDIEALKEIQPAGPYTLWGYSFGARVAFETAYQLEQAGEKVDNLFLIAPGSPKVRAENGKVWGREASFANRGYTTILFSVFTGTISGPDLDRCLETVTDEASFAEFISELKGIDVDLARRIISVVGQTYEFEYSFHELAERTLQAPISIFKAVGDDYSFLENSSGYSAEPPTVIDLDADHYSLLREDIGELVKHIRYLLGE"}, "B2": {"name": "Sfp: PPTase of B. subtilis subsp. spizizenii ATCC6633 (protein, UniProt P39135 1-224, looked up)", "4'-phosphopantetheinyl …": "MKIYGIYMDRPLSQEENERFMSFISPEKREKCRRFYHKEDAHRTLLGDVLVRSVISRQYQLDKSDIRFSTQEYGKPCIPDLPDAHFNISHSGRWVICAFDSQPIGIDIEKTKPISLEIAKRFFSKTEYSDLLAKDKDEQTDYFYHLWSMKESFIKQEGKGLSLPLDSFSVRLHQDGQVSIELPDSHSPCYIKTYEVDPGYKMAVCAAHPDFPEDITMVSYEELL"}},
  "key": {"[1]": {"experiment": "BpsA indigoidine synthesis kinetics, L-Gln as variable substrate", "assay_type": "biochemical", "experimental": "Analysis of BpsA reaction rate over a replicate two fold serial dilution series (0.78 μM-16 mM) of L-gln was conducted at both pH 7.8 (sodium phosphate) and 8.0 (Tris-Cl). […] As such the ΔA590 was expected to be directly proportional to the concentration of holo-BpsA present in a reaction. This assumption was experimentally verified by monitoring reaction velocity at ten different concentrations of holo-BpsA (360 nM-1.14 μM) at constant L-gln/ATP concentrations; as shown in FIG. 6C the relationship between enzyme concentration and velocity is linear within this range (R^2=0.989). Owing to the lack of an extinction co-efficient for indigoidine in water, coupled with formation of insoluble precipitate, we were unable to derive a kcat value for BpsA. We were however able to discern a reproducible maximum velocities which are expressed with the units ΔA590/s. These parameters were subsequently employed for the derivation of PPTase kinetics as outlined in section 4.11.\nPre-activation mix to bring about conversion of apo to holo BpsA contained 3.4 μM apo-BpsA, 0.25 μM PcpS, 10 mM MgCl2, 100 μM CoA and 50 mM buffer (sodium phosphate buffer pH 7.8 or Tris-Cl pH 8.0) and was incubated for 20 min at 30° C.\nA590 measurements were then taken every 6-10 s for ten minutes using an envision EnSpire® microplate reader. The resulting data was visualized and velocities derived using the Slope function of Microsoft Excel®. Kinetic parameters were derived from velocity values using Graphpad Prism®. For examination of the relationship between BpsA concentration and reaction velocity, a triplicate two fold serial dilution series of pre-activated BpsA was established in a 96 wp in a final volume of 50 μL, 100 μl reaction mix without L-gln or ATP was then added to each well. […] A590 values were then recorded and data analysed as previously described."}, "[2]": {"experiment": "BpsA indigoidine synthesis kinetics with respect to ATP (values used in PPTase unit conversion)", "assay_type": "biochemical", "description": "The raw data input into SigmaPlot for derivation of kinetic parameters for the PPTases PcpS and PP1183 was maximum change in indigoidine (ind) synthesis reaction rate (change in gradient per second) vs. concentration of CoA present in the reaction. The Vmax values given by SigmaPlot therefore had the units “Change in gradient per second” The assumptions made and calculations used to convert this standard enzyme kinetics units are given below. […] As such the assumption can be made that reaction rate for this enzyme is directly proportional to the concentration of active enzyme according to the equation:\nFor the reactions used in derivation of kinetic parameters of PPTases, [BpsA]=[E]=1.64 uM. [S]=[ATP]=1 mM."}, "[3]": {"experiment": "BpsA coupled assay for PPTase kinetic parameters, CoA as variable substrate", "assay_type": "biochemical", "conditions": "BpsA fixed at 0.83 μM", "description": "Having established a linear relationship between concentration of holo-BpsA and the apparent rate of indigoidine synthesis in aqueous solution, we next wanted to test whether it was possible to evaluate PPTase activity by using acceleration of the rate of indigoidine synthesis as a measure of the rate of 4′-PP attachment to apo-BpsA. Replicate solutions containing PPTase and all of the substrates necessary for both phosphopantetheinylation and indigoidine synthesis were established using a twofold serial dilution series of CoA (0.024-50 μM) in ninety six well plates. Reactions were initiated by addition of 0.83 μM BpsA each well of a dilution series, and absorbance at 590 nm was measured continuously. Under these conditions, the pigment synthesis reaction undergoes an initial acceleration phase as apo-BpsA is converted to holo-BpsA by the PPTase. […]\nA590 values were then recorded as previously described. […] A590 values were then recorded as previously described. For derivation of PPTase velocity values, the slope between every 2-8 data points was measured across the entire data range with the resulting values forming a new data set (BpsA velocity). The slope between every 2-8 points in the BpsA velocity data set was then determined using the slope function of Microsoft Excel and the maximum value from the resulting data set for each reaction taken as a measure of PPTase velocity. […]"}, "BpsA [4]": {"target": "T1, BpsA (Streptomyces lavendulae, UniProt Q1MWN4)", "T1 construct": "6His; made in house; host or cells: E. coli", "experiment": "BpsA coupled assay for PPTase kinetic parameters, BpsA as variable substrate", "assay_type": "biochemical, S. lavendulae ATCC 11924", "conditions": "CoA fixed at 25 μM", "description": "Having established a linear relationship between concentration of holo-BpsA and the apparent rate of indigoidine synthesis in aqueous solution, we next wanted to test whether it was possible to evaluate PPTase activity by using acceleration of the rate of indigoidine synthesis as a measure of the rate of 4′-PP attachment to apo-BpsA. […] Under these conditions, the pigment synthesis reaction undergoes an initial acceleration phase as apo-BpsA is converted to holo-BpsA by the PPTase. […]\nA590 values were then recorded as previously described. […] A590 values were then recorded as previously described. For derivation of PPTase velocity values, the slope between every 2-8 data points was measured across the entire data range with the resulting values forming a new data set (BpsA velocity). The slope between every 2-8 points in the BpsA velocity data set was then determined using the slope function of Microsoft Excel and the maximum value from the resulting data set for each reaction taken as a measure of PPTase velocity. […] For fast reactions smaller increments could be used, however for slow reactions noise from plate reader noise became a significant factor in point to point variation and created artificial fluctuations in measured slopes if too few points were used in slope determination. […]"}, "BpsA [5]": {"test_system": "BpsA", "experiment": "Qualitative PPTase activity in vivo by co-expression with a BpsA reporter in E. coli", "assay_type": "cell-based, S. lavendulae ATCC 11924", "conditions": "E. coli BL21(DE3), auto-induction agar plates", "experimental": "Single colonies of E. coli co-expressing BpsA and an activating PPTase were inoculated onto pigment production agar plate using a sterile pipette tip and incubated for 16 hours at 37° C. Protein expression was then induced by IPTG addition as described in Section 4.9.2 and the plate incubated for a further 24 h at room temperature (18-25° C.).\nWe constructed plasmids that allowed IPTG regulated co-expression of a candidate PPTase and BpsA in E. coli BL21(DE3). To enable IPTG regulated co-expression the BpsA gene of S. lavendulae ATCC 11924 was cloned into pCDFDUET-1 (Novagen) and three candidate PPTases into the (origin of replication compatible) vector pET28a(+). […] In contrast, if IPTG was absent from the medium viable co-transformed cells were recovered with good efficiency (not shown). […] In order to circumvent this problem we employed auto-induction agar plates, prepared by addition of 1.5% agar to Studier ZYP-5052 auto-induction medium (Studier 2005). Use of auto-induction agar plates allowed for both rapid growth and efficient induction of pigment production following extended incubation at room temperature."}},
  "data": [
    {"molecule": "B1", "values": [
      {"measurement": "Km", "setting": "[1]; NaPh pH 7.8, ATP 2.5 mM", "value": 2430, "unit": "µM"},
      {"measurement": "Vmax", "setting": "[1]; NaPh pH 7.8, ATP 2.5 mM", "value": "1.8 +/− 0.03 (ΔA590 · S^−1 · μM^−1) × 10^−2"},
      {"measurement": "Km", "setting": "[1]; Tris-Cl pH 8.0, ATP 2.5 mM", "value": 3330, "unit": "µM"},
      {"measurement": "Vmax", "setting": "[1]; Tris-Cl pH 8.0, ATP 2.5 mM", "value": "6.5 +/− 0.1 (ΔA590 · S^−1 · μM^−1) × 10^−2"},
      {"measurement": "Km", "setting": "[2]; ATP as substrate", "value": 11100, "unit": "µM"},
      {"measurement": "Kcat (BpsA)", "setting": "[2]; value used for unit conversion of PPTase kinetics", "value": 4.0223, "unit": "s⁻¹"}
    ]},
    {"molecule": "B2", "values": [
      {"measurement": "Km", "setting": "[3]", "value": 0.62, "unit": "µM"},
      {"measurement": "kcat", "setting": "[3]", "value": "0.00213 ± 6.7e-05", "unit": "s⁻¹"},
      {"measurement": "Km", "setting": "BpsA [4]", "value": 3.3, "unit": "µM"},
      {"measurement": "kcat", "setting": "BpsA [4]", "value": "0.0357 ± 0.00067", "unit": "s⁻¹"},
      {"measurement": "Indigoidine production on co-expression with BpsA", "setting": "BpsA [5]", "value": "substantial production of indigoidine"}
    ]}
  ]
}
